# In the nanobody polyreactivity screen of Harvey et al. (2022):
# Experiment: yeast display, Sf9 membrane polyspecificity reagent, FACS + sequencing; frameworks hold sequencing errors
# How it was run: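 Using colony PCR, genes from sorted yeast display clones were amplified, then sequenced on MiSeq at 2 × 250 and filtered by CDR length. The clones had been stained with 10% biotinylated, detergent-solubilized Sf9 membrane reagent for 1 hour at 4 °C and sorted by FACS into low and high (top ~1%) gates on anti-HA and streptavidin fluorescence. Polyreactivity labels come from the gate of origin.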
row,Sequence,polyreactivity (PSR sort gate)
1,QVQLVESGGGLVQAGGSLRLSCAASGSIFRYVMGWYRQAPGKERELVAAISIRGGSTYYADSVKGRFTISRDNAKNTVYLQMNSLKPEDTAVYYCAADRYRLGVKYDYWGQGNQVTVSS,high polyreactivity
2,QVQLVESGGGLVQAGGSLRLSCAASGSIFRYYAMGWSRQAPGKERELVAAISRRGSSTYYADSVKGRFTISRDNAKKTVYLQMNSLKPEDTAVYYCAAGDFKQYDYWGQGTQVTVSS,high polyreactivity
3,QVQLVESGGGLVQAGGSLRLSCAASGSIFRYYAMGWYRQAPGKEREFVAAISRSGGSTYYADSVKGRFTISRDNAKNTVYLQMNSLKPEDTAVYYCAASYYRYFVSLGYDYWGQGTQVTVSS,high polyreactivity
4,QVQLVESGGGLVQAGGSLRLSCAASGSIFRYYAMGWYRQAPGKERELVAAINSRGGTTYYADSVKGRFTISRDNAKNTVYLQMNSLKPEDTAVYYCAAGYPPLHTSVQQTAHYGLDYWGQGTQVTVSS,high polyreactivity
5,QVQLVESGGGLVQAGGSLRLSCAASGSIFRYYAMGWYRQAPGKERELVAAISSSGDNTYYADSVKGRFTISRDNAKNTVYLQMNSLKPEDTAVYYCAVRGERRYIYDYWGQGTQVTVSS,high polyreactivity
6,QVQLVESGGGLVQAGGSLRLSCAASGSIFRYYAMGWYRQAPGKERELVAAITASGGRTHYADSVKGRFTISRDNAKNTVYLQMNSLKLEDTAVYYCSADLYYAWYWKQHYDYWGQGTQVTVSS,high polyreactivity
7,QVQLVESGGGLVQAGGSLRLSCAASGSIFRYYAMGWYRQAPGKERELVAAITWRGGGTYYADSVKGRFTISRDNAKNTVYLQMNSLKPEDTAVYYCAKARFTRGTWFYYWGQGTQVTVSS,high polyreactivity
8,QVQLVESGGGLVQAGGSLRLSCAASGSIFRYYAMGWYRQAPGKERELVARISRNAGRTYYADSVKGRFTISRDNAKNTVYLQMNSLKPEDTAVYYCAADGSKPYAMDYWGQGTQVTVSS,high polyreactivity
9,QVQLVESGGGLVQAGGSLRLSCAASGSIFRYYAMGWYRQAPGKERELVATISSGGRTYYADSVKGRFTISRDNAKNTVYLQMNSQKPEDTAVYYCAARYGTTRYGFDYWGQGTQVTVSS,high polyreactivity
10,QVQLVESGGGLVQAGGSLRLSCAASGSIFRYYDMGWYRQAPGKERELVAAISYSDGRTYYADSVKGRFTISRDNAKNTVYLQMNSLKPEDTAVYYCAAETLYVSPYFFVVQYDYWGQGTKVTVSS,high polyreactivity
11,QVQLVESGGGLVQAGGSLRLSCAASGSIFSANAMGWYRQAPGKERELVAAITSGDSTKYADSVKGRFTISRDNAKNTVYLQMNSLKPEDTAVYYCAVDRGEYKNRVGEEYWGQGTQVTVSS,low polyreactivity
12,QVQLVESGGGLVQAGGSLRLSCAASGSIFSAYAIGWYRQAPGKERELDAAITKSSVTYYADSVKGRFTISRDNAKNSVYLHMNSLKPEDTAVYYCAAASGGTVVGEVDYWGQGTQVTVSS,low polyreactivity
13,QVQLVESGGGLVQAGGSLRLSCAASGSIFSAYAMGWYIQAPGKERELVAGITGSGGRTYYADSVKGRFTISRDNAKNTVYLQMNSLKPEDTAVYYCLARSYYNWYDYWGQGTQVTVSS,high polyreactivity
14,QVQLVESGGGLVQAGGSLRLSCAASGSIFSDYAIGWYSTAPGKERELVASISWTGGGTYYADSVKGRFTISRDNAKNTVYLQMNSVKPEDTGFYYCAAEYSYIMDFWGQGTQVTVSS,high polyreactivity
15,QVQLVESGGGLVQAGGSLRLSCAASGSIFSDYAMGWYRQAPGKERELVAAITQSGVSTYADSVKGRFTISRDNAKNTVYLQMNSLKPEDTAVYYCAADEVPGFGYPPYPWFDYWGQGTQVTVSS,low polyreactivity
16,QVQLVESGGGLVQAGGSLRLSCAASGSIFSENTMGWYRPAPGKKRELVADITSGGSTNYADSVKGRFTISRDNAKKTVYLQMNSLKPEDTAVYYCAADYNGEYDYWGLGTQVTVSS,low polyreactivity
17,QVQLVESGGGLVQAGGSLRLSCAASGSIFSFNVMGWYRQAPGKERELVATITGGGSTNYADSVKGRFTISRDNAKNTVYLQMNSLIPEDTAVYYCAARPVNGGILEYWGQGTQVTVSS,low polyreactivity
18,QVQLVESGGGLVQAGGSLRLSCAASGSIFSFYTMGWYRQAPGKERELVAAINWSGSRTYYADSVKGRFTISRDNAKKTVYLQMNSLNPEDTAVYYCAARKYYSRAYDYWGQGTQVTVSS,high polyreactivity
19,QVQLVESGGGLVQAGGSLRLSCAASGSIFSGNAMGWYRQAPGKERELVAAISRSGGSTYYADSVKGRFTISRDYAKNTVYLQMNSLKPEDTAVYYCAKGQYYYIGDYDYWGQGTQVTVSS,high polyreactivity
20,QVQLVESGGGLVQAGGSLRLSCAASGSIFSGYAMGWYRQAPGKERELVAAISRRGTSTYYADSVKGRFTISRDNAKNTVYLQMNSLKPEDTAVYYCAATYGGRQSYGGFDYWGQGTQVTVSS,high polyreactivity
21,QVQLVESGGGLVQAGGSLRLSCAASGSIFSGYAMGWYRQAPGKERELVAAITRSGGRTYYADSVKGRFTISRDNAKNTVYLQMNSLKPEDTAVYYCAARGGPGDDYWGQGTQVTVSS,high polyreactivity
22,QVQLVESGGGLVQAGGSLRLSCAASGSIFSGYVMGWYRQAPGKERELVAAIDNSSGSTYYADSVKGRFTISRDNAKNSVYLQMNSLKPEDTAVYYCAAAYYWKAYSEYDYWGQGTQVTVSS,low polyreactivity
23,QVQLVESGGGLVQAGGSLRLSCAASGSIFSHNAMGWYRQAPGKERELVAAISWSAASTYYADSVKGRFTISRDNAKNTVYLQMNSLKPEDTAVYYCAAVPYSSTYRYDYWGQGTQVTVSS,low polyreactivity
24,QVQLVESGGGLVQAGGSLRLSCAASGSIFSHNVMVWYRQAPGKERELVAAISGGGGRTYYADSVKGRFTISRDNAKNTVYLQMNSLKAEDTAVYYCNAYVGLSEGDYWGQGTQVSVSS,high polyreactivity
25,QVQLVESGGGLVQAGGSLRLSCAASGSIFSIYAMGWYRQAPGKERDFVASITVTDGSTYYADSVKGRFTISRDNAKNTVYLQMNSLKPEDTAVYYCYADGWYALYEWLAVSGYYWGQGTQVTVSS,low polyreactivity
26,QVQLVESGGGLVQAGGSLRLSCAASGSIFSIYAMGWYRQAPGKERELVAAISWSGGSTYYADSVKGRFTISRDTAKITVYLQMNSLKPEDTAVYYCAAEYEYMWSQYLTEYGYDYWGQGTQVTVSS,low polyreactivity
27,QVQLVESGGGLVQAGGSLRLSCAASGSIFSKNAMGWYRQAPGKERELVAAISSSGGITYYADSVKVRFTISRDNANNTVYLQMNSLKPEDTAFYYCATLGGAIRQAFEYWGQGTQVNVSS,low polyreactivity
28,QVQLVESGGGLVQAGGSLRLSCAASGSIFSKYAMGRYRPAPGKERELVAAISRRGGDTYYADSVKGRFTISRDNAKNTVYLQMNSLKPEDTAVYYCAAYQYYLYDYWGQGTQVTVSS,high polyreactivity
29,QVQLVESGGGLVQAGGSLRLSCAASGSIFSKYAMGWYRPAPGKERELVAAIASSGGSTYYADSVKGRFTISRDNAKNTVYFQMNSLKPEDTAVYYCAAGGRSVRYNYWGQGTQVTVSS,high polyreactivity
30,QVQLVESGGGLVQAGGSLRLSCAASGSIFSKYAMGWYRQAPGKERELVAAITFRSGSTYYADSVKGRFTISRDNAKNTVYLQMNSLKPEDTAVYYCAADEYYQVSAYDYWGQGTQVTVSS,low polyreactivity
